Patent US7083786

T1: human complement factor C4, P0C0L4
T1 chain: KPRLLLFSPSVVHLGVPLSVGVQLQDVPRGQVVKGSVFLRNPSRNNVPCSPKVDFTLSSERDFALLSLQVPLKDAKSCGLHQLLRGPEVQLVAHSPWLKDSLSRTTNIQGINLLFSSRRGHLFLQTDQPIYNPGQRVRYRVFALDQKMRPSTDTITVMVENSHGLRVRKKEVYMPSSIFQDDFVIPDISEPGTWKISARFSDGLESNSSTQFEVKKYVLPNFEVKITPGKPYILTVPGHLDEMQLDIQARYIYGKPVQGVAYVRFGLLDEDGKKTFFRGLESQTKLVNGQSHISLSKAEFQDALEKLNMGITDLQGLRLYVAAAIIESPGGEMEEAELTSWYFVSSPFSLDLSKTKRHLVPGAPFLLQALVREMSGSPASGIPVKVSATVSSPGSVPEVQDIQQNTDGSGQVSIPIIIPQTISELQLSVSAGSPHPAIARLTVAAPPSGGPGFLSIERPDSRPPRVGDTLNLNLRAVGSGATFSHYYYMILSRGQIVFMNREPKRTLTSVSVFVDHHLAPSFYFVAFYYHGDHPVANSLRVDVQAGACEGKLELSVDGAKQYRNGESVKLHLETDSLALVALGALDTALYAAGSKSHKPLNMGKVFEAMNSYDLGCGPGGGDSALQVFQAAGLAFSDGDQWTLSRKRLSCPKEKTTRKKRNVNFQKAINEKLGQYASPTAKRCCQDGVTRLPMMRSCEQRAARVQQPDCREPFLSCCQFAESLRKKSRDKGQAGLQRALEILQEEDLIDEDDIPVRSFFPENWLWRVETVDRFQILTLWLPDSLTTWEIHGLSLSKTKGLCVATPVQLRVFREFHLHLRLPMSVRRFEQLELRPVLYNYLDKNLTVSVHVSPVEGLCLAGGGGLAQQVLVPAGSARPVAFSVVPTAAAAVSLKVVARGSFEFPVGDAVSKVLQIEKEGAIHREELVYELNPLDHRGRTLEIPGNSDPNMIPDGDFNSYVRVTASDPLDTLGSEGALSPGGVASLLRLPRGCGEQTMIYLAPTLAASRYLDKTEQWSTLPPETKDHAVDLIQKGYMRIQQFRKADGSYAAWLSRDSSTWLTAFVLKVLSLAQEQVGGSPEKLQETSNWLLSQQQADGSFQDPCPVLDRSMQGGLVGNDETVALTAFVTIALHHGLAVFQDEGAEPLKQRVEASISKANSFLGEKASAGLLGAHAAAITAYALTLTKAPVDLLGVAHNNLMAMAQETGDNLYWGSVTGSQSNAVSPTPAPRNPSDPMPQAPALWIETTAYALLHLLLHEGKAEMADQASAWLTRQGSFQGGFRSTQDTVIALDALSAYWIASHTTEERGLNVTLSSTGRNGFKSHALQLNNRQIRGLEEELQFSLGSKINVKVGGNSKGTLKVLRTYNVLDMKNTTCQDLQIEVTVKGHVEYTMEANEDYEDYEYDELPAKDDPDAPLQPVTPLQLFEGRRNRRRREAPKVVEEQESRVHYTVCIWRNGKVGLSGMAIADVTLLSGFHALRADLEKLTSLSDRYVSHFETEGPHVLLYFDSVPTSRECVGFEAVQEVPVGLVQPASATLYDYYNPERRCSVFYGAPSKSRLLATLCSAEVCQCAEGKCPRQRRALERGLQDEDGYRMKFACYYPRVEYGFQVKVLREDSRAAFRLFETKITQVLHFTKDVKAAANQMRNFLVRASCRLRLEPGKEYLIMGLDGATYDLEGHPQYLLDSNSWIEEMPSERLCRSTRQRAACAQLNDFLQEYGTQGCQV

B1: mannan-binding lectin associated serine protease-2 (MASP-2), 76 kDa protein from human plasma (protein)
chain: TPLGPKWPEPVFGRLASPGFPGEYANDQERRWTLTAPPGYRLRLYFTHFDLELSHLCEYDFVKLSSGAKVLATLCGQESTDTERAPGKDTFYSLGSSLDITFRSDYSNEKPFTGFEAFYAAEDIDECQVAPGEAPTCDHHCHNHLGGFYCSCRAGYVLHRNKRTCSALCSGQVFTQRSGELSSPEYPRPYPKLSSCTYSISLEEGFSVILDFVESFDVETHPETLCPYDFLKIQTDREEHGPFCGKTLPHRIETKSNTVTITFVTDESGDHTGWKIHYTSTAQPCPYPMAPPNGHVSPVQAKYILKDSFSIFCETGYELLQGHLPLKSFTAVCQKDGSWDRPMPACSIVDCGPPDDLPSGRVEYITGPGVTTYKAVIQYSCEETFYTMKVNDGKYVCEADGFWTSSKGEKSLPVCEPVCGLSARTTGGRIYGGQKAKPGDFPWQVLILGGTTAAGALLYDNWVLTAAHAVYEQKHDASALDIRMGTLKRLSPHYTQAWSEAVFIHEGYTHDAGFDNDIALIKLNNKVVINSNITPICLPRKEAESFMRTDDIGTASGWGLTQRGFLARNLMYVDIPIVDHQKCTAAYEKPPYPRGSVTANMLCAGLESGGKDSCRGDSGGALVFLDSETERWFVGGIVSWGSMNCGEAGQYGVYTKVINYIPWIENIISDF
B2: MASP-1 (MBP-associated serine protease) from human plasma (protein)
chain: HTVELNNMFGQIQSPGYPDSYPSDSEVTWNITVPDGFRIKLYFMHFNLESSYLCEYDYVKVETEDQVLATFCGRETTDTEQTPGQEVVLSPGSFMSITFRSDFSNEERFTGFDAHYMAVDVDECKEREDEELSCDHYCHNYIGGYYCSCRFGYILHTDNRTCRVECSDNLFTQRTGVITSPDFPNPYPKSSECLYTIELEEGFMVNLQFEDIFDIEDHPEVPCPYDYIKIKVGPKVLGPFCGEKAPEPISTQSHSVLILFHSDNSGENRGWRLSYRAAGNEPELQPPVHGKIEPSQAKYFFKDQVLVSCDTGYKVLKDNVEMDTFQIECLKDGTWSNKIPTCKIVDCRAPGELEHGLITFSTRNNLTTYKSEIKYSCQEPYYKMLNNNTGIYTCSAQGVWMNKVLGRSLPTCLPVCGLPKFSRKLMARIFNGRPAQKGTTPWIAMLSHLNGQPFCGGSLLGSSWIVTAAHCLHQSLDPKDPTLRDSDLLSPSDFKIILGKHWRLRSDENEQHLGVKHTTLHPKYDPNTFENDVALVELLESPVLNAFVMPICLPEGPQQEGAMVIVSGWGKQFLQRFPETLMEIEIPIVDHSTCQKAYAPLKKKVTRDMICAGEKEGGKDACSGDSGGPMVTLNRERGQWYLVGTVSWGDDCGKKDRYGVYSYIHHNKDWIQRVTGVRN
B3: C1s from human serum C1 (protein)
chain: EPTMYGEILSPNYPQAYPSEVEKSWDIEVPEGYGIHLYFTHLDIELSENCAYDSVQIISGDTEEGRLCGQRSSNNPHSPIVEEFQVPYNKLQVIFKSDFSNEERFTGFAAYYVATDINECTDFVDVPCSHFCNNFIGGYFCSCPPEYFLHDDMKNCGVNCSGDVFTALIGEIASPNYPKPYPENSRCEYQIRLEKGFQVVVTLRREDFDVEAADSAGNCLDSLVFVAGDRQFGPYCGHGFPGPLNIETKSNALDIIFQTDLTGQKKGWKLRYHGDPMPCPKEDTPNSVWEPAKAKYVFRDVVQITCLDGFEVVEGRVGATSFYSTCQSNGKWSNSKLKCQPVDCGIPESIENGKVEDPESTLFGSVIRYTCEEPYYYMENGGGGEYHCAGNGSWVNEVLGPELPKCVPVCGVPREPFEEKQRIIGGSDADIKNFPWQVFFDNPWAGGALINEYWVLTAAHVVEGNREPTMYVGSTSVQTSRLAKSKMLTPEHVFIHPGWKLLEVPEGRTNFDNDIALVRLKDPVKMGPTVSPICLPGTSSDYNLMDGDLGLISGWGRTEKRDRAVRLKAARLPVAPLRKCKEVKVEKPTADAEAYVFTPNMICAGGEKGMDSCKGDSGGAFAVQDPNDKTKFYAAGLVSWGPQCGTYGLYTRVKNYVDWIMKTMQENSTPRED
B4: C1r from human serum C1 (protein)
chain: SIPIPQKLFGEVTSPLFPKPYPNNFETTTVITVPTGYRVKLVFQQFDLEPSEGCFYDYVKISADKKSLGRFCGQLGSPLGNPPGKKEFMSQGNKMLLTFHTDFSNEENGTIMFYKGFLAYYQAVDLDECASRSKSGEEDPQPQCQHLCHNYVGGYFCSCRPGYELQEDRHSCQAECSSELYTEASGYISSLEYPRSYPPDLRCNYSIRVERGLTLHLKFLEPFDIDDHQQVHCPYDQLQIYANGKNIGEFCGKQRPPDLDTSSNAVDLLFFTDESGDSRGWKLRYTTEIIKCPQPKTLDEFTIIQNLQPQYQFRDYFIATCKQGYQLIEGNQVLHSFTAVCQDDGTWHRAMPRCKIKDCGQPRNLPNGDFRYTTTMGVNTYKARIQYYCHEPYYKMQTRAGSRESEQGVYTCTAQGIWKNEQKGEKIPRCLPVCGKPVNPVEQRQRIIGGQKAKMGNFPWQVFTNIHGRGGGALLGDRWILTAAHTLYPKEHEAQSNASLDVFLGHTNVEELMKLGNHPIRRVSVHPDYRQDESYNFEGDIALLELENSVTLGPNLLPICLPDNDTFYDLGLMGYVSGFGVMEEKIAHDLRFVRLPVANPQACENWLRGKNRMDVFSQNMFCAGHPSLKQDACQGDSGGVFAVRDPNTDRWVATGIVSWGIGCSRGYGFYTKVLNYVDWIKKEMEEED

Target: T1, human complement factor C4, P0C0L4

Protein | C4 deposition on a Western blot incubated with human serum (C4 activation)
B1 | C4 was deposited at a position corresponding to the MASP-2 band
B2 | no C4 deposition was observed at positions corresponding to MASP-1
B3 | C4 deposition, which could be inhibited by enzyme inhibitors, was observed at a position corresponding to C1r and C1s, which are not separated by the technique employed
B4 | C4 deposition, which could be inhibited by enzyme inhibitors, was observed at a position corresponding to C1r and C1s, which are not separated by the technique employed
